PMC9164050, “N-Terminus-Mediated Solution Structure of Dimerization Domain of PRC1” (Current Issues in Molecular Biology, 2022)

Biological target: the molecule itself
Experiment: cross-linking; PEG5 cross-linker (0.1 M-1 M), protein at 20 nM and 50 nM, 50 mM sodium phosphate, 150 mM NaCl, pH 7.4, 25 °C, 30 min, read by SDS-PAGE

B1: PRC1 dimerization domain (PRC1-DD; aa 1-65 of Protein Regulator of Cytokinesis 1) (domain or fragment, human, UniProt O43663-1 1-65, looked up)
chain: MRRSEVLAEESIVCLQKALNHLREIWELIGIPEDQRLQRTEVVKKHIKELLDMMIAEEESLKERL
notes: Protein Regulator of Cytokinesis 1 (PRC1), human, isoform 1 (NP_003972; full length 620 residues), residues 1-65 (dimerization domain); Cloned between Nde I and Xho I of pET-21a with a C-terminal His-tag; no removal of the tag is described; For NMR the protein was 15N- or 15N/13C-labelled; isotopic heterodimers were made by mixing unlabelled and labelled protein in 8 M urea; also called …
stoichiometry N: 2
